The target of test [1] is T1, CD117 transiently expressed on Expi293 cells (UniProt P10721 26-976, limits assumed).
T1 construct: whole, on cells; Two cassettes are described (P2A mVenus and direct mVenus fusion); also called CD117 transient cells; the transient cell line
The test can be described thus: FACS cell binding, Expi293 transiently expressing CD117. On the procedure: The transient expression of CD117 was validated with a control antibody, Expi293 (FIGS. 17A-17B). Expi293, […], was transiently transfected with CD117 48-hours post-transfection. The secondary antibody used was APC Goat anti-human IgG (diluted 1:400). 100,000 cells per well were blocked with 1×PBS+0.5% BSA for 1 hour, stained with 100 μL of the primary antibody for 1 hour, and stained with the secondary antibody for one hour, all with 3× washes in between each staining.

Test [2] concerns the target CD117-GFP transiently overexpressed in HEK293T cells (UniProt P10721 26-976). The test can be described thus: cell-based or functional assay.
The target of a further test is T2, SIGLEC-5 (limits assumed).
T2 construct: also called OB-BP-2
T2 receptor: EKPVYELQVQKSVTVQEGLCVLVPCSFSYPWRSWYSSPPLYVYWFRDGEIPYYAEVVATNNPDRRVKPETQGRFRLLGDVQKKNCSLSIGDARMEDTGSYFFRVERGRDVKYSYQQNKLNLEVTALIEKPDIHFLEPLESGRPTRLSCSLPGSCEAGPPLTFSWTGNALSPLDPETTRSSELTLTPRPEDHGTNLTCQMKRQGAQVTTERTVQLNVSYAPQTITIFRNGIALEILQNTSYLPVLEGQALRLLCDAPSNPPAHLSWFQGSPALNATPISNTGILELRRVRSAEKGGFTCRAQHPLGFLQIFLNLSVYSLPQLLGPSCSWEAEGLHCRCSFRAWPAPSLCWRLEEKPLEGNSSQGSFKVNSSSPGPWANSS
Briefly: SPR cross-reactivity table. In outline:
(§1)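 Values are dissociation constants or binding results, one per protein tested, from surface plasmon resonance run on a Carterra instrument. The antibodies, raised against SIGLEC-8, were assessed for cross-reactivity with related SIGLEC proteins. They had been selected from synthetic libraries over four rounds of bead-based panning, screened by clonal ELISA, then expressed and purified.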

Another test deals with T3, SIGLEC-3.
T3 construct: also called CD33
The test can be described thus: SPR cross-reactivity table. In outline: as §1

In another test the target is T4, SIGLEC-2.
T4 construct: also called CD22
The test can be described thus: SPR cross-reactivity table. In outline:
as §1

The target of the next test is T5, SIGLEC-6.
T5 construct: also called OB-BP-1
Briefly: SPR cross-reactivity table. In outline:
as §1

For another test, the target named is T6, SIGLEC-7.
T6 construct: also called p75/AIRM1
The test can be described thus: SPR cross-reactivity table. In outline:
as §1

The target of test [3] is T7, Sialic acid-binding immunoglobulin-like lectin 8 (SIGLEC-8), antigen of the Carterra SPR studies (UniProt Q9NYZ4 17-363, limits assumed). The test can be described thus: Carterra SPR kinetics, summary table. In outline:
(§2)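 Binding of antibodies to SIGLEC-8 was followed by surface plasmon resonance on a Carterra instrument to obtain rate constants and dissociation constants. Before these kinetic runs, clones from synthetic antibody libraries were selected by four rounds of bead-based panning and clonal ELISA, then expressed and purified.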

Test [4] has as its target T8, SIGLEC-8 transiently expressed on cells (UniProt Q9NYZ4 17-499, limits assumed).
T8 construct: whole, on cells; Two cassettes are described (P2A mVenus and direct mVenus fusion); also called the transient line; pTT5-SIGLEC-8 P2A mVenus
Briefly: cell binding titration, transient SIGLEC-8 line.

The target in test [5] is T7, Sialic acid-binding immunoglobulin-like …. Briefly: Carterra SPR. In outline:
as §2

T5 sequence (receptor, as listed by the source limits assumed): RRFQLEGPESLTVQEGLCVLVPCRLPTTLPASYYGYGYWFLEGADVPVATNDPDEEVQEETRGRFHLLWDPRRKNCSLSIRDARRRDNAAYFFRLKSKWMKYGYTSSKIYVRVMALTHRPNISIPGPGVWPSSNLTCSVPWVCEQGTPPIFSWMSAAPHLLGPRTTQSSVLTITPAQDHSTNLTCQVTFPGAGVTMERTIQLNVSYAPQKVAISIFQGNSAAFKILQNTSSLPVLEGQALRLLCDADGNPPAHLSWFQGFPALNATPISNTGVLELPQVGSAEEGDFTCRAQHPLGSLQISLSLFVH
T6 sequence (receptor, as listed by the source limits assumed): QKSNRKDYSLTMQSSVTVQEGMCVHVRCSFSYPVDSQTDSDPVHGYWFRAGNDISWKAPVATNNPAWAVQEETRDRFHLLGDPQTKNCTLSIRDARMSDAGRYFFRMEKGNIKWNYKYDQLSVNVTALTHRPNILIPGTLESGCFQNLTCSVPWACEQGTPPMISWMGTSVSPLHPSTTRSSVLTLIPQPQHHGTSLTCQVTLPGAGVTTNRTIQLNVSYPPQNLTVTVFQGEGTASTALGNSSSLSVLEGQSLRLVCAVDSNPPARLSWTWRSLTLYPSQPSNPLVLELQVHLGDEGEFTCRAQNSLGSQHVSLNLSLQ
T4 sequence (chain, as listed by the source limits assumed): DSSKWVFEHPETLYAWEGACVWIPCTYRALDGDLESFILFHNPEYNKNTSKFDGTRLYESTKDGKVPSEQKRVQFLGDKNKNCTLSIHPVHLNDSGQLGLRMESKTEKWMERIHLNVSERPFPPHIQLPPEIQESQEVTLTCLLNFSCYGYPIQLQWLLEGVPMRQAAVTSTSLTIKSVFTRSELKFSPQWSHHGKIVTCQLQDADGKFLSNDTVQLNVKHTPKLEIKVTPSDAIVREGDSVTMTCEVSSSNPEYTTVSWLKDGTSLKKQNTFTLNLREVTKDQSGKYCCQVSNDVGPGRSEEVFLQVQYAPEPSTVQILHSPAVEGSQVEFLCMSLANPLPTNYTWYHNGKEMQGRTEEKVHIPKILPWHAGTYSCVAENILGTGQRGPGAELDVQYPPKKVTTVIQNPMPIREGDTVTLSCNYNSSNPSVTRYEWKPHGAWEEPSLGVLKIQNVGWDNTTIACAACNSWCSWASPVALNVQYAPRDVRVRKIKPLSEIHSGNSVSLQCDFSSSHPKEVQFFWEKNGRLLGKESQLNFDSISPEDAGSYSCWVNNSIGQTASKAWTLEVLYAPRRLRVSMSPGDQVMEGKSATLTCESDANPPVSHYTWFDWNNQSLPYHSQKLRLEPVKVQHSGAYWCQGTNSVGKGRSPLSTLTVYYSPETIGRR
T8 sequence (Q9NYZ4 17-499 limits assumed): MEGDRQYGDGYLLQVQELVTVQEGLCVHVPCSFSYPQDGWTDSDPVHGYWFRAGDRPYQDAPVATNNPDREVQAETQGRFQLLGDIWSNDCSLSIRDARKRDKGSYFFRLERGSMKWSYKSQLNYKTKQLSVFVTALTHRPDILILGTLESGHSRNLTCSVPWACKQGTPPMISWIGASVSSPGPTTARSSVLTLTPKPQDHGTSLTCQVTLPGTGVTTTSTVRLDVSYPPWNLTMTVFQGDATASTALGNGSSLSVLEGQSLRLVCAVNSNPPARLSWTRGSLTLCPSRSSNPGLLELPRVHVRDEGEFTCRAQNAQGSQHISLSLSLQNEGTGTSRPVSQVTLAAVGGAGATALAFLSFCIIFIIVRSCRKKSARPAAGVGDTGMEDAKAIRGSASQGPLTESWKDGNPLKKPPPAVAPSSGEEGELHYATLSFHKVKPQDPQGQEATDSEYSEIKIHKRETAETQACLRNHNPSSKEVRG
T7 sequence (Q9NYZ4 17-363 limits assumed): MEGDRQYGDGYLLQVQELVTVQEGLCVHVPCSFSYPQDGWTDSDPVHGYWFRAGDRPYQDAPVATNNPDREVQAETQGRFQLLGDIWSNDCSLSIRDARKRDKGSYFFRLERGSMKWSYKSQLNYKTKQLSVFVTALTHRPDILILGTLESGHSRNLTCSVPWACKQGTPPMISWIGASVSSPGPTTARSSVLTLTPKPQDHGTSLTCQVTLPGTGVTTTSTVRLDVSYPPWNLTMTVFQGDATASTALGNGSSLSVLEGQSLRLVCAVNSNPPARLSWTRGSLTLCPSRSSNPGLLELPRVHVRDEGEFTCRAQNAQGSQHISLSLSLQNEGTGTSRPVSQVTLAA
T3 sequence (receptor, as listed by the source limits assumed): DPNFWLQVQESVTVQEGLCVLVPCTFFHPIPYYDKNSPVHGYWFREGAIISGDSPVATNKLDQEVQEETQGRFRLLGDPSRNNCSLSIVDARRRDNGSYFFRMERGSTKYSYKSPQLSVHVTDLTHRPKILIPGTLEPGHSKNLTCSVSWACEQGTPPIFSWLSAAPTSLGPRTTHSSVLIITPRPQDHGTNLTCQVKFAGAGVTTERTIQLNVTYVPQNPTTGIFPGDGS
T1 sequence (P10721 26-976 limits assumed): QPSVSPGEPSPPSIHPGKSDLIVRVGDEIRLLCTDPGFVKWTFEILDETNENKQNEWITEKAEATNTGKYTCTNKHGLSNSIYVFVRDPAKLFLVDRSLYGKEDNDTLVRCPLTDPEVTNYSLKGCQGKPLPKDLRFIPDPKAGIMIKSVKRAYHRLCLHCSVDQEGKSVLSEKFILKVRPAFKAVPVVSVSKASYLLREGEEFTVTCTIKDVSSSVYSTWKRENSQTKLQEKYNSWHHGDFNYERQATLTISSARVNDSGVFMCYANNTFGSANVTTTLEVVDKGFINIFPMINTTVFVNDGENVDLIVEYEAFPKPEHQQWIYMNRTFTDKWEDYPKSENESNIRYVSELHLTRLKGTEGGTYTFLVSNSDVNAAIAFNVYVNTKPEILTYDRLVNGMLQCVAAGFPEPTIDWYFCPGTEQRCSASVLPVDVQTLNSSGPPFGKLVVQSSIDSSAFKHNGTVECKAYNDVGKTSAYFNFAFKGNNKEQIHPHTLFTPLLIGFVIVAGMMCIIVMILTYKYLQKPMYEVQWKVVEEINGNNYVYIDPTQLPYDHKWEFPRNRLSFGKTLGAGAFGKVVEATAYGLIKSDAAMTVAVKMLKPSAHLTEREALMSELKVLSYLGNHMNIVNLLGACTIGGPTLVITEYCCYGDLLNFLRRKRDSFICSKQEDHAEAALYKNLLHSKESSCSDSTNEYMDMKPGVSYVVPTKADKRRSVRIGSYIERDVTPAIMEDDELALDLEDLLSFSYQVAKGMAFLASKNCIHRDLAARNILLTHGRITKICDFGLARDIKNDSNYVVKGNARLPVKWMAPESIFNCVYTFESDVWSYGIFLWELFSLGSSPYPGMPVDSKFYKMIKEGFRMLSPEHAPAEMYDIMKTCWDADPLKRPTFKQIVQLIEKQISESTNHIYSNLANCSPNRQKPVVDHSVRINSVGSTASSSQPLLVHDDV

B1: CD117-6 (antibody, human IgG1, kappa, V domains shown)
VH: EVQLLESGGGLVQPGGSLRLSCAASGFTFSAYALTWVRQAPGKGLEWVSAISSSGGSTFYADSVKGRFTISRDNSKNTLYLQMNSLRAEDTAVYYCARVSRGYPRRSDSWGQGTLVTVSS
VL: DIQMTQSPSSLSASVGDRVTTTCRASQGISTYLNWYQQKPGKAPKLLIYGASRLQGGVPSRFSGSGSGTDFTLTISSLQPEDFATYYCQQGYSFPWTFGGGTKVEIKR
notes: detected with anti-human IgG in FACS
For orientation: EC50 means the concentration giving half of the maximal effect. Read a low EC50 as an effect from little substance. As for B1, the EC50 in test [1] turned out to be 0.116 nM. Besides, the “IC50, inhibition of the SCF-stimulated SRF reporter signal (FFLuc/RLuc); same row prints log(IC50) -8.147 and Span -0.2026” value in [2] is 7.13e-09 M.

B2: SIGLEC-8-44 (antibody, human IgG1, kappa, V domains shown)
VH: EVQLLESGGGLVQPGGSLRLSCAASGFTISSSAMTWVRQAPGKGLEWVSSISGGGGTTYYADSVKGRFTISRDNSKNTLYLQMNSLRAEDTAVYYCAREGAGYYYGMDVWGQGTLVTVSS
VL: DIQMTQSPSSLSASVGDRVTITCRASQSIGNYLNWYQQKPGKAPKLLIYAASRLQGGVPSRFSGSGSGTDFTLTISSLQPEDFATYYCQQSYSTPLSFGGGTKVEIKR
notes: tested as expressed and purified mAb
A word on the Kd: it is a measure of binding affinity in units of concentration. A word on the koff: it is the rate constant with which the complex falls apart. Low readings indicate a long-lived complex, high ones a short-lived complex. For orientation: kon means the rate constant with which the complex forms. Read a low kon as slow association. As for B2, the Kd with SIGLEC-5 is 6.7 nM; with SIGLEC-6 it was 35.2 nM; in test [5], 0.517 nM. The binding result in the test with SIGLEC-3, with SIGLEC-2 and in the test with SIGLEC-7 was “no binding” in each case. This molecule returned a koff in test [3] of 0.000138 s⁻¹. The kon in test [3] was found to be 267000 M⁻¹ s⁻¹. This molecule had an EC50 in test [4] of 1.07 nM.

B3: SIGLEC-8-57 (antibody, human IgG1, kappa, V domains shown)
VH: EVQLLESGGGLVQPGGSLRLSCAASGFAFSRYAMSWVRQAPGKGLEWVSGISGSGGRTHYADSVKGRFTISRDNSKNTLYLQMNSLRAEDTAVYYCARQSRGGSLGMDVWGQGTLVTVSS
VL: DIQMTQSPSSLSASVGDRVTITCRASQSISGYLNWYQQKPGKAPKLLIYGSSTLQSGVPSRFSGSGSGTDFTLTISSLQPEDFATYYCQQSYSPPWTFGGGTKVEIKR
notes: as for B2
On to B3, for which the figures for the Kd (with SIGLEC-5; with SIGLEC-6; in [5]) were 28.3 nM, 9.6 nM and 990 nM, respectively. Besides, the binding result in the test with SIGLEC-3, with SIGLEC-2 and with SIGLEC-7 was “no binding” each time. Further, a half-maximal effect in [4] (EC50) was put at 1.73 nM.

B4: SIGLEC-8-34 (antibody, human IgG1, kappa, V domains shown)
VH: EVQLLESGGGLVQPGGSLRLSCAASGFTFSRHAMGWVRQAPGKGLEWVSSISGSGYSTYYADSVKGRFTISRDNSKNTLYLQMNSLRAEDTAVYYCARENGQYYYGMDVWGQGTLVTVSS
VL: DIQMTQSPSSLSASVGDRVTITCRASQTITTYLNWYQQKPGKAPKLLIYAASHLQTGVPSRFSGSGSGTDFTLTISSLQPEDFATYYCQQSYSTPLSFGGGTKVEIKR
notes: as for B2
Turning to B4, the Kd with SIGLEC-5 was 5.5 nM; with SIGLEC-3 it was 62.2 nM; with SIGLEC-2, 208 nM; with SIGLEC-6, 6.9 nM; in [5], 9.23 nM. Also, in the test with SIGLEC-7, the binding result was “no binding”. The same molecule registered an EC50 in [4] of 1.95 nM.

B5: SIGLEC-8-48 (antibody, human IgG1, kappa, V domains shown)
VH: EVQLLESGGGLVQPGGSLRLSCAASGFNFRSYAMSWVRQAPGKGLEWVSGISGSGGSAYYADSVKGRFTISRDNSKNTLYLQMNSLRAEDTAVYYCAREGYNWAVDYWGQGTLVTVSS
VL: DIQMTQSPSSLSASVGDRVTITCRASQSISGFLNWYQQKPGKAPKLLIYGASILQSGVPSRFSGSGSGTDFTLTISSLQPEDFATYYCQQTYSTPRSFGGGTKVEIKR
notes: as for B2
Take B5: the binding result with SIGLEC-5, with SIGLEC-3, with SIGLEC-6 and with SIGLEC-7 was “no binding” throughout. Moreover, the Kd was 629 nM with SIGLEC-2 and 336 nM in [5]. Besides, in test [4], the concentration for a half-maximal effect (EC50) was determined as 12.3 nM.

B6: SIGLEC-8-10 (antibody, human IgG1, kappa, V domains shown)
VH: EVQLLESGGGLVQPGGSLRLSCAASGFTFNNYAMAWVRQAPGKGLEWVSAISGSGSSPYYADSVKGRFTISRDNSKNTLYLQMNSLRAEDTAVYYCARDQIVAMDVWGQGTLVTVSS
VL: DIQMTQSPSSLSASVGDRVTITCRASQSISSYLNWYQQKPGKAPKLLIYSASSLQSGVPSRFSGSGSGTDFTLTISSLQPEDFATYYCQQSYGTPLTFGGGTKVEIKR
notes: as for B2
Take B6: the binding result with SIGLEC-5, with SIGLEC-3, in the test with SIGLEC-6 and with SIGLEC-7 was “no binding” throughout. Moreover, the Kd with SIGLEC-2 was determined as 755 nM; in test [5], 3.17 nM. Also, in test [4], the EC50 stood at 1.09 nM.

B7: SIGLEC-8-54 (antibody, human IgG1, kappa, V domains shown)
VH: EVQLLESGGGLVQPGGSLRLSCAASGFTFNNYAMAWVRQAPGKGLEWVSAISGSGSSPYYADSVKGRFTISRDNSKNTLYLQMNSLRAEDTAVYYCARDQIVAMDVWGQGTLVTVSS
VL: DIQMTQSPSSLSASVGDRVTITCRGSQSISSYLNWYQQKPGKAPKLLIYDASSLQSGVPSRFSGSGSGTDFTLTISSLQPEDFATYYCQQSYRTPITFGGGTKVEIKR
notes: as for B2
On to B7, for which the results for the Kd (with SIGLEC-5; in the test with SIGLEC-6; in [5]) were 19.9 nM, 12 nM and 1.06 nM, respectively. Further, the binding result with SIGLEC-3, with SIGLEC-2 and in the test with SIGLEC-7 was “no binding” throughout. The same molecule had an EC50 in test [4] of 0.527 nM.

B8: SIGLEC-8-11 (antibody, human IgG1, kappa, V domains shown)
VH: EVQLLESGGGLVQPGGSLRLSCAASGLTFSNYDMSWVRQAPGKGLEWVSAISTSGGGSGGSTYYADSVKGRFTISRDNSKNTLYLQMNSLRAEDTAVYYCAREANNYYYGMDVWGQGTLVTVSS
VL: DIQMTQSPSSLSASVGDRVTITCRASQTISSYLHWYQQKPGKAPKLLIYAASSLHTGVPSRFSGSGSGTDFTLTISSLQPEDFATYYCQQSSSTPLTFGGGTKVEIKR
notes: as for B2
For the molecule B8, the Kd with SIGLEC-5 was 29.7 nM; in [5] it was 0.217 nM. Besides, the binding result in the test with SIGLEC-3, with SIGLEC-2, with SIGLEC-6 and with SIGLEC-7 was “no binding” throughout. Moreover, the koff in [3] was 7.23e-05 s⁻¹. Besides, the kon in test [3] came to 334000 M⁻¹ s⁻¹. Besides, a half-maximal response in [4] (EC50) required 2.19 nM.

B9: SIGLEC-8-58 (antibody, human IgG1, kappa, V domains shown)
VH: EVQLLESGGGLVQPGGSLRLSCAASGFTFRTSAMSWVRQAPGKGLEWVSSVSGSGSSTYYADSVKGRFTISRDNSKNTLYLQMNSLRAEDTAVYYCAKEGSYYYYGMDVWGQGTLVTVSS
VL: DIQMTQSPSSLSASVGDRVTITCRASQTIGRYLNWYQQKPGKAPKLLIYGASSLYSGVPSRFSGSGSGTDFTLTISSLQPEDFATYYCQQSYKTPVTFGGGTKVEIKR
notes: as for B2
For the molecule B9, the Kd with SIGLEC-5 worked out at 169 nM; in test [5], 0.97 nM. In addition, the binding result in the test with SIGLEC-3, with SIGLEC-2, with SIGLEC-6 and with SIGLEC-7 was “no binding” each time. In addition, the koff in test [3] was 0.000127 s⁻¹. The molecule also had a kon in test [3] of 131000 M⁻¹ s⁻¹. The molecule further had an EC50 in test [4] of 0.914 nM.

B10: SIGLEC-8-17 (antibody, human IgG1, kappa, V domains shown)
VH: EVQLLESGGGLVQPGGSLRLSCAASGFPFSNYAMGWVRQAPGKGLEWVSGISASGSSTYYADSVKGRFTISRDNSKNTLYLQMNSLRAEDTAVYYCAREDSGKYLSLDYWGQGTLVTVSS
VL: DIQMTQSPSSLSASVGDRVTITCRTSQSISSHLNWYQQKPGKAPKLLIYAASSLQPGVPSRFSGSGSGTDFTLTISSLQPEDFATYYCQQSYNTPPTFGGGTKVEIKR
notes: as for B2
B10: the binding result with SIGLEC-5, in the test with SIGLEC-3, with SIGLEC-6 and with SIGLEC-7 was “no binding” each time. The values for the Kd (with SIGLEC-2; in [5]) were 836 nM and 8.89 nM, respectively. The same molecule had a half-maximal effective concentration (EC50) in test [4] of 1.25 nM.
